Experimental data: article PMC4244909

Molecular target: microtubules (polymers of α/β-tubulin) of the co-sedimentation and negative-stain EM experiments
Assay: co-sedimentation

Sequence of microtubules (polymers of α/β-tubulin) of the co-sedimentation and negative-stain EM experiments (P68363 whole entry, chain 1 of 2): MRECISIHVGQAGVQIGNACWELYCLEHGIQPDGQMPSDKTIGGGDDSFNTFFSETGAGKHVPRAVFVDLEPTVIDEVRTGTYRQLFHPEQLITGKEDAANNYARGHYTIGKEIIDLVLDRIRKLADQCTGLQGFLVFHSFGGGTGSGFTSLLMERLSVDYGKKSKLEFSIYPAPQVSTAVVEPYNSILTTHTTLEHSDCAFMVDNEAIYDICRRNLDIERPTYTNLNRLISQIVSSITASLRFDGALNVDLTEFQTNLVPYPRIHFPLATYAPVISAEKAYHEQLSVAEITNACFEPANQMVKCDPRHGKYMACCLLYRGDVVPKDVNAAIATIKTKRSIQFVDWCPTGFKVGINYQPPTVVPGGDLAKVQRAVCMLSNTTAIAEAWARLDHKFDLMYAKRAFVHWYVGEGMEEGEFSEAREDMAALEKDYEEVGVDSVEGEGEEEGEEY
Sequence of microtubules (polymers of α/β-tubulin) of the co-sedimentation and negative-stain EM experiments (A8K068 whole entry, chain 2 of 2, further chain): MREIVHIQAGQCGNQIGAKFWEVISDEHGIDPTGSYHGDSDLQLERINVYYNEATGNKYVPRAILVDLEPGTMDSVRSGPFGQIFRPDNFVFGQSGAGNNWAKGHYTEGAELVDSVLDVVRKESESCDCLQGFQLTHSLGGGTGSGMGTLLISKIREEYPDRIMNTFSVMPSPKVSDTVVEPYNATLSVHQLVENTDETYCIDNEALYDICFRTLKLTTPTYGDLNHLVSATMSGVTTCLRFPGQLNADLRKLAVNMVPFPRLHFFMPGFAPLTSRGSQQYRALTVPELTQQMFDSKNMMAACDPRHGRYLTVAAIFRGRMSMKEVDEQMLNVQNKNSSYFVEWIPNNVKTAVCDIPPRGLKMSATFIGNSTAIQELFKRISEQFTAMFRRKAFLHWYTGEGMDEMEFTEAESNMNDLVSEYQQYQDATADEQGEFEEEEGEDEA

B1: Hice1-MTBR (Hice1 microtubule-binding region, a.a. 1–141), Q9BT25 1-141 (domain or fragment)
chain: MADSSGRGAGKPATGPTNSSSAKKKDKRVQGGRVIESRYLQYEKKTTQKAPAGDGSQTRGKMSEGGRKSSLLQKSKADSSGVGKGDLQSTLLEGHGTAPPDLDLSAINDKSIVKKTPQLAKTISKKPESTSFSAPRKKSPD
Kd: 9.33 µM
